B1: wild-type plasma APC (enzyme)
chain: ANSFLEELRHSSLERECIEEICDFEEAKEIFQNVDDTLAFWSKHVDGDQCLVLPLEHPCASLCCGHGTCIDGIGSFSCDCRSGWEGRFCQREVSFLNCSLDNGGCTHYCLEEVGWRRCSCAPGYKLGDDLLQCHPAVKFPCGRPWKRMEKKRSHLLIDGKMTRRGDSPWQVVLLDSKKKLACGAVLIHPSWVLTAAHCMDESKKLLVRLGEYDLRRWEKWELDLDIKEVFVHPNYSKSTTDNDIALLHLAQPATLSQTIVPICLPDSGLAERELNQAGQETLVTGWGYHSSREKEAKRNRTFVLNFIKIPVVPHNECSEVMSNMVSENMLCAGILGDRQDACEGDSGGPMVASFHGTWFLVGLVSWGEGCGLLHNYGVYTKVSRYLDWIHGHIRDKEAPQKSWAP
modifications: two chains: light 1-155, heavy 170-419

The assay has as its target human alpha-1-antitrypsin (Sigma) (human) (UniProt P01009). Nature of the assay: cell-based or functional assay.
Chain of UniProt P01009 (P01009 25-418 limits assumed): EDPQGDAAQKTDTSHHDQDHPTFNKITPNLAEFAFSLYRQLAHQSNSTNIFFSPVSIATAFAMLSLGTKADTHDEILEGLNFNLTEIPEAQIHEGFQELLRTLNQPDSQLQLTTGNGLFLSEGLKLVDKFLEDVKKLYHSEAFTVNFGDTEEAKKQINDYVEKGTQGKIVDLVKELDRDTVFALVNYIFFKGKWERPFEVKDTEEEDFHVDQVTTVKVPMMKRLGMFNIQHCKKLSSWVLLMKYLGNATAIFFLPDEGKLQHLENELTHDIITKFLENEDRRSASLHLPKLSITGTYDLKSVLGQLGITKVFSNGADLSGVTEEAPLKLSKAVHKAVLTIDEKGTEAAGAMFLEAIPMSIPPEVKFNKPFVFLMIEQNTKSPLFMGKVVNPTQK
APC conjugate D189N+K191T (enzyme) returned a % residual amidolytic activity, 16.6 µM inhibitor, 20 h at 37 °C of 90% and a % residual amidolytic activity, 42.3 µM inhibitor, 20 h at 37 °C of 77%.
Consider APC conjugate D214N (enzyme), for which the % residual amidolytic activity, 16.6 µM inhibitor, 20 h at 37 °C stood at 80% and the % residual amidolytic activity, 42.3 µM inhibitor, 20 h at 37 °C worked out at 81%.
Molecule APC conjugate E307N+E309T (enzyme) came in with a % residual amidolytic activity, 16.6 µM inhibitor, 20 h at 37 °C of 10% and a % residual amidolytic activity, 42.3 µM inhibitor, 20 h at 37 °C of less than 1%.
The matching figures for APC conjugate K191N+K193T (enzyme): 59% and 24%.
In turn, APC conjugate K217N+L219T (enzyme) had a % residual amidolytic activity, 16.6 µM inhibitor, 20 h at 37 °C of 20% and a % residual amidolytic activity, 42.3 µM inhibitor, 20 h at 37 °C of 4%.
On to APC conjugate L386N+H388T (enzyme), for which the % residual amidolytic activity, 16.6 µM inhibitor, 20 h at 37 °C was determined as 68% and the % residual amidolytic activity, 42.3 µM inhibitor, 20 h at 37 °C came to 44%.
APC conjugate M338N (enzyme): the % residual amidolytic activity, 16.6 µM inhibitor, 20 h at 37 °C was found to be 38% and the % residual amidolytic activity, 42.3 µM inhibitor, 20 h at 37 °C stood at 12%.
APC conjugate S305N+E307T (enzyme) yielded a % residual amidolytic activity, 16.6 µM inhibitor, 20 h at 37 °C of 42% and a % residual amidolytic activity, 42.3 µM inhibitor, 20 h at 37 °C of 9%.
The like results for APC conjugate S336N+M338T (enzyme) were, in that order, 72% and 40%.
The matching figures for APC conjugate T253N+D255T (enzyme): 56% and 38%.
With “APC variant D189N+K191N (control) (enzyme)”, the % residual amidolytic activity, 16.6 µM inhibitor, 20 h at 37 °C came out at 12% and the % residual amidolytic activity, 42.3 µM inhibitor, 20 h at 37 °C was less than 1%.
The like results for APC variant D214A (control) (enzyme) were, in that order, 21% and 1%.
As for APC variant K251N (enzyme), the % residual amidolytic activity, 16.6 µM inhibitor, 20 h at 37 °C amounted to 62% and the % residual amidolytic activity, 42.3 µM inhibitor, 20 h at 37 °C amounted to 53%.
With APC variant M338A (control) (enzyme), the % residual amidolytic activity, 16.6 µM inhibitor, 20 h at 37 °C is 9% and the % residual amidolytic activity, 42.3 µM inhibitor, 20 h at 37 °C worked out at 2%.
Take APC variant S190N+K192T (enzyme): the % residual amidolytic activity, 16.6 µM inhibitor, 20 h at 37 °C is 28% and the % residual amidolytic activity, 42.3 µM inhibitor, 20 h at 37 °C was found to be 5%.
The matching figures for APC variant S252N (enzyme): 62% and 34%.
The like results for APC variant Y302N (enzyme) were, in that order, 50% and 30%.
As for wild-type COS 7 APC (enzyme), the % residual amidolytic activity, 16.6 µM inhibitor, 20 h at 37 °C turned out to be 7% and the % residual amidolytic activity, 42.3 µM inhibitor, 20 h at 37 °C was less than 1%.
The like results for B1 were, in that order, 10% and 2%.
